Experimental data: article PMC5702341, “Identification of Antibody and Small Molecule Antagonists of Ferroportin-Hepcidin Interaction” (Frontiers in Pharmacology, 2017)
Where a SMILES comes first, the peptide text is derived from it. Bridges are numbered along the chain shown (N, C = ends). Side-chain parts run from the residue outwards. The star is where a group is joined. X1 = Nc1ccc2c(c1)Oc1cc(N)ccc1C21OC(=O)c2cc(C(=O)*)ccc21; Ahx = NCCCCCC(=O)O

Columns and labels:
[1] = target: human ferroportin with V5 tag, on doxycycline-induced T-REx/FPN-V5 cells (human) (UniProt Q9NP59)
[2] = target: T1, ferroportin-hepcidin interaction (T-REx/FPN-V5 cells) (Homo sapiens, UniProt Q9NP59); experiment: RhoG-hepcidin uptake assay; format: cell-based; details: compound 1 h prior to 250 nM RhoG-hepcidin for 1 h; read-out: IC50 inhibition of RhoG-hepcidin uptake
T1 sequence (Q9NP59 1-571): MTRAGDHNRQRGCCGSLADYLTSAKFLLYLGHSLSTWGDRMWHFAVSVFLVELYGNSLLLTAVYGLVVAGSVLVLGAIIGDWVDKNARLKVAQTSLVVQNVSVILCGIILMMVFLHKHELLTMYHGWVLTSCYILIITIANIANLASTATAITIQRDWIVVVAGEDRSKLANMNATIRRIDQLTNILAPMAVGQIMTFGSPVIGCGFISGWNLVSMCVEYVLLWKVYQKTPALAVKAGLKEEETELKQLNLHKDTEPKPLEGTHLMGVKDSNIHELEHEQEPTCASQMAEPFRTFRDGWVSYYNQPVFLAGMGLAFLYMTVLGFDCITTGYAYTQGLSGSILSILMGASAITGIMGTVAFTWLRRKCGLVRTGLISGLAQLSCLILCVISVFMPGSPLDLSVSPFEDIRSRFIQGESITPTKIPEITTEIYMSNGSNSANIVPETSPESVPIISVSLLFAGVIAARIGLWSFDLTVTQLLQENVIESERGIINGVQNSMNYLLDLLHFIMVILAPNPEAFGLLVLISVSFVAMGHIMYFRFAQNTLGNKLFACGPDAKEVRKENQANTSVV
T1 sequence (P81172 60-84 partner): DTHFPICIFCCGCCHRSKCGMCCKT
Source text: (§1) In an effort to identify small molecule inhibitors of hepcidin-induced FPN internalization, we ran a small molecule screen using the cell-based iron response reporter assay described above. […] Molecules that prevented intracellular iron accumulation were further tested in the RhoG-hepcidin uptake and FPN internalization assays.

[3] = target: T1, ferroportin-hepcidin interaction (T-REx/FPN-V5 cells); experiment: RhoG-hepcidin reversibility (washout) assay; format: cell-based; details: for IC50: cells treated 1 h, washed to remove unbound compound, then RhoG-hepcidin, N = 3, read-out: IC50 blocking RhoG-hepcidin binding/uptake after washout
Procedure: T-REx™/FPN-V5 cells plated in 96-well Packard ViewPlates at 50,000 cells/well and induced overnight as described for the BLA screening assay. […] As a control, cells were treated identically except that compound was not removed before addition of RhoG-hepcidin. Cells were fixed with 4% formaldehyde (Thermo Fisher) and stained with Hoechst nuclear dye. RhoG-Hepc uptake per cell was measured by cellular imaging.
as §1
(A) T-REx™/FPN-V5 cells were induced overnight and treated with small molecules for 1 h prior to addition of RhoG-hepc for 2 h. Cells were fixed/permeabilized and stained with Ab 38G6; blue = nuclei, green = RhoG-hepcidin, red = FPN. Scale bar = 20 μm.
Reactivity with cell-based, folded FPN was assessed by the hepcidin uptake assay (Figure 9C); reactivity with the linear peptide was assessed by mass spectrometry (Figure 10A).

[4] = target: human ferroportin with V5 tag, on doxycycline-induced T-REx/FPN-V5 cells (human) (UniProt Q9NP59); remark: listed apart in the source
[5] = target: endogenous human ferroportin on T47D cells (human (endogenous in T47D)) (UniProt Q9NP59)
[6] = target: human ferroportin with V5 tag, on doxycycline-induced T-REx/FPN-V5 cells (human) (UniProt Q9NP59); remark: listed apart in the source
[7] = target: ferroportin (T-REx/FPN-V5 cells) (Homo sapiens, UniProt Q9NP59); experiment: cell-based
Procedure: Cells were plated in 96-well Poly-D-Lysine coated plates (BD) at 50,000 cells/well and induced overnight with 10 ng/ml doxycycline (Clontech). […] FPN staining was completed as described above except that the incubations were performed at room temperature. […] Nuclei were stained with Hoechst dye. Cell surface or total FPN or intracellular hepcidin was quantitated with cellular imaging. Uninduced (non-FPN-expressing) cells served as a negative control. Images were captured from Arrayscan™ VTI (Thermo Fisher) equipped with Zeiss microscope optics and Hamamatsu ORCA®-ER CCD camera. Images were captured with 10X or 20X objectives and analyzed with the Spot Detector bioapplication. A minimum of 300 cells per well were analyzed for each condition.
T-REx™/FPN-V5 were plated in 384-well Poly-D-Lysine coated plates (BD) at 15,000 cell/well and induced overnight as described for RhoG-hepcidin uptake assay. […] Plates were scanned on Thermo Fisher ArrayScan™ HCS Reader and analyzed with Spot Detector application. A minimum of 300 cells/well were analyzed.
Alanine mutant peptides were tested for activity in both BLA and ferroportin internalization assays.
Using these antibodies, it was possible to develop a quantitative cellular imaging assay that measured hepcidin-induced FPN internalization. […]

FPN (T-REx/FPN-V5 cells) = experiment: RhoG-hepcidin binding and displacement at 0°C on FPN-expressing cells; format: cell-based, human; details: 2 h on ice, then 10X unlabeled hepcidin for 2 h on ice
Procedure: To verify this work, RhoG-hepcidin was incubated with either uninduced or induced cells at 0°C. Contrary to the previous report, RhoG-hepcidin bound to FPN at this low temperature. To assess the reversibility of hepcidin binding to FPN, we incubated FPN-expressing cells with RhoG-hepcidin at 0°C to prevent internalization; we then added excess unlabeled hepcidin to determine if the labeled hepcidin could be displaced. […] We confirmed that FPN was not internalized using antibody 45D8 (Figure 11A).
(A) T-REx™/FPN-V5 cells were allowed to equilibrate on ice for 15 min prior to addition of RhoG-hepcidin for 2 h on ice; 10X unlabeled hepcidin was added for 2 additional hours on ice. FPN was detected with Ab 45D8; scale bar = 20 μm. (B) Non-glycosylated FPN binds hepcidin and internalizes. T-REx™/FPN-V5 cells were treated ± 0.3 μg/ml tunicamycin (Tm) for 18 h, followed by treatment with 500 nM hepcidin (Hepc) for 5 h. Blot was probed with anti-V5 Ab for FPN detection and anti-cyclophilin as loading control. (C) Induced HEK-FPN-V5 cells were treated ± 0.25 μg/ml tunicamycin (Tm) for 18 h, followed by RhoG-hepcidin for 3 h; uptake was quantitated by cellular imaging (N = 4, mean ± sd).

Row | Molecule | FPN internalization assay EC50 (surface FPN by cellular imaging, T-REx/FPN-V5 cells) [1] | Iron response assay EC50 (β-lactamase reporter under the ferritin IRE, T-REx/FPN-V5/IRE-BLA cells) [1] | also measured
1 | hepcidin G20A (peptide) | 309 nM | 288 nM | –
2 | hepcidin G12A (peptide) | 212 nM | 107 nM | –
3 | O=S(=O)(c1ccc(Cl)cc1)c1cnc2ccccc2n1 [Compound 1, 2-[(4-chlorophenyl)sulfonyl]quinoxaline] | – | – | IC50 [2]: 141 nM; inhibition at 100 µM ([3]; 100 μM compound, 1 h, in cells, read-out: inhibition of hepcidin uptake): 100%; IC50 [3]: 100 nM
4 | synthetic human hepcidin (wild type, unlabeled) (peptide) | 51 nM | 63 nM | EC50 of hepcidin-induced FPN internalization, T-REx/FPN-V5 cells, 6 h, surface FPN on live cells by cellular imaging with Ab 38C8 [4]: 11 nM; EC50 of hepcidin-induced FPN internalization, T47D cells, 6 h, surface FPN on live cells by cellular imaging with Ab 38C8 [5]: 13 nM
5 | hepcidin S17A (peptide) | 50 nM | 66 nM | –
6 | hepcidin H3A (peptide) | 308 nM | 298 nM | –
7 | NC(=O)CI [iodoacetamide, reference compound] | – | – | inhibition of hepcidin uptake ([3]; 100 μM compound, 1 h, in cells): ~ 50%; IC50 [3]: 86000 nM
8 | hepcidin K24A (peptide) | 267 nM | 266 nM | –
9 | hepcidin I6A (peptide) | 247 nM | 634 nM | –
10 | hepcidin K18A (peptide) | 12 nM | 13 nM | –
11 | hepcidin F9A (peptide) | 250 nM | 392 nM | –
12 | hepcidin R16A (peptide) | 56 nM | 57 nM | –
13 | hepcidin D1A (peptide) | 185 nM | 144 nM | –
14 | hepcidin T25A (peptide) | 39 nM | 53 nM | –
15 | [Lys17(N-epsilon-Rhodamine green amino hexanoyl)]hepcidin (peptide) | – | – | EC50 of FPN internalization, T-REx/FPN-V5 cells, 3 h, cellular imaging with Ab 38C8 [6]: 30 nM
16 | hepcidin I8A (peptide) | > 3600 nM | > 3600 nM | –
17 | hepcidin F4A (peptide) | > 3600 nM | > 3600 nM | –
18 | hepcidin M21A (peptide) | 162 nM | 112 nM | –
19 | hepcidin T2A (peptide) | 29 nM | 29 nM | –
20 | hepcidin H15A (peptide) | 10 nM | 12 nM | –
21 | hepcidin P5A (peptide) | 474 nM | 180 nM | –
22 | CC[C@H](C)[C@@H]1NC(=O)[C@@H](NC(=O)[C@@H](NC(=O)[C@@H]2CCCN2C(=O)[C@H](Cc2ccccc2)NC(=O)[C@H](Cc2c[nH]cn2)NC(=O)[C@@H](NC(=O)[C@@H](N)CC(=O)O)[C@@H](C)O)[C@@H](C)CC)CSSC[C@@H](C(=O)N[C@@H](CCCCN)C(=O)N[C@H](C(=O)O)[C@@H](C)O)NC(=O)[C@@H]2CSSC[C@@H]3NC(=O)[C@@H]4CSSC[C@H](NC(=O)[C@H](Cc5ccccc5)NC1=O)C(=O)N[C@@H](CSSC[C@H](NC(=O)[C@H](CCCCN)NC(=O)[C@H](CCCCNC(=O)CCCCCNC(=O)c1ccc5c(c1)C(=O)OC51c5ccc(N)cc5Oc5cc(N)ccc51)NC(=O)[C@H](CCCNC(=N)N)NC(=O)[C@H](Cc1c[nH]cn1)NC3=O)C(=O)NCC(=O)N[C@@H](CCSC)C(=O)N2)C(=O)NCC(=O)N4 [RhoG-hepcidin, [Lys17(N^ε-Rhodamine green amino hexanoyl)]hepcidin] (H-DTHFPICIFCCGCCHRK([Ahx-X1])KCGMCCKT-OH; disulfide 7-23, 10-13, 11-19, 14-22 (inferred); C-terminus assumed) | – | – | EC50 [7]: ~30 nM; reversibility of binding to FPN (FPN (T-REx/FPN-V5 cells)): reversible
